{"source": "IntAct's records for PubMed 26167883", "target": "mcm2_human MCM2 (UniProt P49736)"}
{"substance": "Histone H3.1 (Homo sapiens) (from UniProt P68431) R64A;K65A", "values": [{"measurement": "effect of a mutation on the interaction", "value": "decreasing interaction strength"}]}
